Source: US20260232830A1 (JIANGSU HENGRUI PHARMACEUTICALS, published 2026)

B1: ZalH4 (antibody, human IgG1, kappa, V domains shown)
VH: QVQLVESGGGVVQPGRSLRLSCAASGFTFSTYGMHWVRQAPGKGLEWVAVIWDDGSYKYYGDSVKGRFTISRDNSKNTLYLQMNSLRAEDTAVYYCARDGVTMVRGVMKDYFDYWGQGTLVTVSS
VL: DIQLTQSPSSLSASVGDRVTITCRASQDISSALVWYQQKPGKAPKLLIYDASSLESGVPSRFSGSESGTDFTLTISSLQPEDFATYYCQQFNSYPLTFGGGTKVEIKR
notes: anti-EGFR zalutumumab variant, human IgG1; also called EGFR monoclonal antibody ZalH4
B2: ZalH4-9-A (antibody, human IgG1, kappa, V domains shown)
VH: B1 VH
VL: B1 VL
modifications: compound 9-A coupled to reduced cysteines of the antibody (chains and sites not stated), average DAR n=5.94
notes: also called EGFR monoclonal antibody ADC
B3: M4-H1L1 (antibody, human IgG1, kappa)
heavy: not shown
light: DIQMTQSPSSLSASVGDRVTITCSASSSVFNMNWYQQKPGKSPKLWIYDISKLASGVPSRFSGSGSGTDFTLTISSLQPEDFATYYCQQRSFYPPTFGGGTKVEIKRTVAAPSVFIFPPSDEQLKSGTASVVCLLNNFYPREAKVQWKVDNALQSGNSQESVTEQDSKDSTYSLSSTLTLSKADYEKHKVYACEVTHQGLSSPVTKSFNRGEC
notes: humanized, human IgG1
B4: M4H1L1-ZalH4 (bispecific antibody, human IgG1, kappa)
heavy: not shown
light: B3 light
chain 1: not shown
chain 2: DIQLTQSPSSLSASVGDRVTITCRASQDISSALVWYQQKPGKAPKLLIYDASSLESGVPSRFSGSESGTDFTLTISSLQPEDFATYYCQQFNSYPLTFGGGTKVEIKGGGGSSGAPRFLTRPKASVVSVGKDATLSCQIVGNPFPQVSWEKDKQPVTAGVRFRLAQDGDLYRLKILDLQLSDSGQYVCRARNAHGEAFACLGLQVDAEA
notes: also called anti-EGFR-MUC1 bispecific antibody
B5: F4-18 (antibody of hybridoma 36G9) (antibody, V domains shown)
VH: EVQLQQSGAELVRPGSSVKMSCKTSGYTFTSYGINWVKQRPGQGLEWIGYIYLGSDYTEYNEKFKGKATLTSDTTSSTAYMQLSSLTSEDSAIYFCARSAGSLFAYWGQGTLVTVSA
VL: DIQLTQSPSSLSASLGERVSLTCRASQDIGITLNWLQQEPDGTIKRLIYATSSLDSGVPKRFSGSRSGSDYSLTISSLESEDFVDYYCLQYASSPYTFGGGTKLEIK
notes: murine antibody tested as hybridoma supernatant; also called hybridoma supernatant 36G9

How the values were obtained:
[1] = target: T1, human EGFR as expressed on tumour cell lines (HCC827, T47D, HPAC) (human, UniProt P00533 25-1210); test: FACS, HPAC
T1 construct: whole, on cells; the cell line is named under assay; also called HCC827 cells; T47D cells

[2] = target: T1, human EGFR as expressed on tumour cell …; test: FACS, HCC827
human EGFR-His antigen [3] = target: T2, human EGFR-His antigen (human, UniProt P00533 25-645); test: SPR Biacore 8K, antibody on Protein A chip, 1:1 fit
T2 construct: also called hEGFR-His

human EGFR-His antigen [4] = target: T2, human EGFR-His antigen; test: SPR Biacore T200, antibody on Protein A chip, 1:1 fit
[5] = target: T3, cynomolgus EGFR-his (Cat. #90285-C08H, Sino Biological) (cynomolgus, UniProt A0A2K5WK39 25-645); test: as above
T3 construct: bought reagent; also called Cyno EGFR-His

[6] = target: T4, Cynomolgus MUC1 his (Cat. #MU1-C52H5, Acro) (cynomolgus); test: as above
T4 construct: bought reagent; also called Cyno MUC1-His

[7] = target: T5, MUC1-C-L-6×His (His-tagged human MUC1-C protein extracellular domain) (human, UniProt P15941 961-1152); test: SPR Biacore 8K, antibody on Protein A chip, 1:1 fit
T5 construct: template human MUC1 UniProt P15941; expressed in 293 cells; also called hMUC1-C-L-his; MUC1-C-L-His

human EGFR-His antigen [8] = target: T2, human EGFR-His antigen; test: SPR Biacore 8K, antibody on Protein A chip; Ag1 blank, Ag2 hEGFR-His
human EGFR-His antigen [9] = target: T2, human EGFR-His antigen; test: SPR Biacore 8K, antibody on Protein A chip; Ag1 hMUC1-C-His bound first, Ag2 hEGFR-His
human EGFR-His antigen [10] = target: T2, human EGFR-His antigen; test: SPR Biacore 8K, antibody on Protein A chip, 1:1 fit; remark: listed apart in the source
[11] = target: T5, MUC1-C-L-6×His (His-tagged human MUC1-C …); test: ELISA, coated antigen, hybridoma supernatant

Binder	Emax [1]	Emax [2]	Kd (human EGFR-His antigen [4])	Kd [5]	Kd [6]	further results
B1	13000	37600	33 nM	477 nM	–	Kd (human EGFR-His antigen [3]): 44.3 nM
B2	14400	31700	–	–	–	–
B3	–	–	–	–	18.9 nM	Kd [7]: 5.27 nM
B4	–	–	14.8 nM	243 nM	17.8 nM	Kd (human EGFR-His antigen [8]): 18 nM; Kd (human EGFR-His antigen [9]): 19.6 nM; Kd (human EGFR-His antigen [10]): 10.4 nM; koff (human EGFR-His antigen [10]): 0.00144 s⁻¹; kon (human EGFR-His antigen [10]): 139000 M⁻¹ s⁻¹
B5	–	–	–	–	–	OD450 nm [11]: 2.05
